Reference: paper PMC3708532 (RNA, 2013)
Where “and” joins values, the source holds several entries; their conditions need not be identical. Identical values can stand only once.

Columns and labels:
[1] = biological target: the molecule itself; assay: negative-stain electron microscopy
cross-linking = biological target: the molecule itself; assay: cross-linking

B1: Schmallenberg virus (SBV) nucleocapsid (N) protein (natural protein)
chain: MSSQFIFEDVPQRNAATFNPEVGYVAFIGKYGQQLNFGVARVFFLNQKKAKMVLHKTAQPSVDLTFGGVKFTVVNNHFPQYVSNPVPDNAITLHRMSGYLARWIADTCKASVLKLAEASAQIVMPLAEVKGCTWADGYTMYLGFAPGAEMFLDAFDFYPLVIEMHRVLKDNMDVNFMKKVLRQRYGTMTAEEWMTQKITEIKAAFNSVGQLAWAKSGFSPAARTFLQQFGINI
stoichiometry N [1]: 4 and 5
stoichiometry N (cross-linking): 3
